Data from patent publication US20210002623A1, “AMINOPEPTIDASE AND ITS USES” (Centre national de la recherche scientifique, priority 2017, published 2021).

What was measured:
[1] = system: H-Trp-Phe-Tyr-Ser(PO3H2)-Pro-Arg-pNA; experiment: Hydrolysis of longer peptide substrates followed by reverse phase HPLC; type: biochemical; conditions: after 5 minutes, 85° C.
Procedure: The hydrolytic activity of MjTET on synthetic chromogenic and fluorogenic compounds was determined by using different aminoacyl-pNAs and aminoacyl-AMCs through the following procedure. Reactions were initiated by addition of 4 μg/mL of enzyme to a pre-warmed mixture containing 5 mM of the chromogenic or fluorogenic compound in 50 mM CHES, 150 mM KCl and 0.1 mM CoCl2, pH 8.2, in a total volume of 400 μl. Incubation was performed at 75° C. for 5 min. The quantity of liberated pNA was evaluated by measuring the absorbance at λ=405 nm in a JASCO V-630 spectrophotometer, and for AMC by measuring the fluorescence using excitation and emission wavelengths of 360 and 440 nm, respectively in a JASCO FP-8500 spectrofluorometer. Three replicates and two enzyme blanks were assayed for each experimental point. Additional enzymatic studies were performed in order to investigate MjTET capacities to hydrolyze longer substrates (H-Trp-Phe-Tyr-Ser(PO3H2)-Pro-Arg-pNA (SEQ ID NO: 3), H-Met-Trp-Ala-Glu-Asn-Lys (SEQ ID NO:4), H-Tyr-Asp-Thr-Ser-Ile-Val-Gln-Arg (SEQ ID NO:5), H-Asp-Ala-Tyr-Pro-Ser (SEQ ID NO: 6) and H-Glu-Gly-Ile. 2 μg/ml (final concentration) of MjTET were added to a pre-warmed mixture of 0.75 mM peptide, 50 mM CHES, 150 mM KCl, 0.1 mM CoCl2, pH 8.5. To avoid water evaporation, 20 μl of mineral oil were added on the top of the total volume. […]

[2] = Effect of temperature on MjTET activity; type: biochemical; conditions: Leu-pNA
Procedure: Different temperatures ranging from 20 to 90° C. were tested on MjTET activity. Incubation was done in 50 mM CHES, 150 mM KCl, 0.1 mM CoCl2, pH 8.5 in presence of 4 μg/mL of protein and 5 mM Leu-pNA for 5 min. Absorbance of released pNA was measured at 405 nm.

[3] = Effect of pH on MjTET activity; type: biochemical; conditions: pH 6 and 10.5; Leu-pNA, 75° C.
Procedure: The effect of pH on MjTET activity was determined in pH range varying from 6 to 11. The buffers used were: PIPES, pH 6-7.5; CHES, pH 8.2-10 and CAPS, pH 10.5-11. All buffers were used at 50 mM concentration in presence of 150 mM KCl, 0.1 mM CoCl2, 4 μg/mL of MjTET and 5 mM Leu-pNA as substrate. The given pH values are at 75° C. Incubation was done at 75° C. for 5 min and the quantity of produced pNA was evaluated by measuring the absorbance at 405 nm.

[4] = Effect of temperature on MjTET stability (remaining aminopeptidase activity after incubation at 85° C.); type: physicochemical; conditions: incubated at 85° C.; remaining activity on Leu-pNA
Procedure: The effect of temperature on MjTET stability was assayed by incubating the enzyme (160 μg/ml) at 85° C. Aliquot of 10 μl was taken at different time intervals, and the remaining aminopeptidase activity was assayed against 5 mM Leu-pNA in 390 μl of 50 mM CHES, 150 mM KCl, 0.1 mM CoCl2, pH 8.5 incubated at 85° C. for 5 min. Enzymatic stability of MjTET was evaluated by measuring the quantity of produced pNA at 405 nm.

[5] = Hydrolytic activity on synthetic chromogenic and fluorogenic monoacyl compounds; type: biochemical; conditions: for cleavage of tryptophan from substrate Nt end: FIG. 4; for amidolytic activity against aromatic amino acids: phenylalanine and tyrosine, MjTET compared with PhTET2 (FIG. 4)
Procedure: The hydrolytic activity of MjTET on synthetic chromogenic and fluorogenic compounds was determined by using different aminoacyl-pNAs and aminoacyl-AMCs through the following procedure. Reactions were initiated by addition of 4 μg/mL of enzyme to a pre-warmed mixture containing 5 mM of the chromogenic or fluorogenic compound in 50 mM CHES, 150 mM KCl and 0.1 mM CoCl2, pH 8.2, in a total volume of 400 μl. Incubation was performed at 75° C. for 5 min. The quantity of liberated pNA was evaluated by measuring the absorbance at λ=405 nm in a JASCO V-630 spectrophotometer, and for AMC by measuring the fluorescence using excitation and emission wavelengths of 360 and 440 nm, respectively in a JASCO FP-8500 spectrofluorometer. Three replicates and two enzyme blanks were assayed for each experimental point. Additional enzymatic studies were performed in order to investigate MjTET capacities to hydrolyze longer substrates (H-Trp-Phe-Tyr-Ser(PO3H2)-Pro-Arg-pNA (SEQ ID NO: 3), H-Met-Trp-Ala-Glu-Asn-Lys (SEQ ID NO:4), H-Tyr-Asp-Thr-Ser-Ile-Val-Gln-Arg (SEQ ID NO:5), H-Asp-Ala-Tyr-Pro-Ser (SEQ ID NO: 6) and H-Glu-Gly-Ile. 2 μg/ml (final concentration) of MjTET were added to a pre-warmed mixture of 0.75 mM peptide, 50 mM CHES, 150 mM KCl, 0.1 mM CoCl2, pH 8.5. To avoid water evaporation, 20 μl of mineral oil were added on the top of the total volume. The reaction incubation was done at 85° C. during 6 min. Aliquot of 80 μl was then removed and added to 220 μl of 2% acetonitrile (ACN), 0.1% trifluoroacetic acid (TFA). Proteins were removed by centrifugation at 13,000 rpm during 15 min. 100 μl of the supernatant were retrieved and injected on Nova-Pak C18 column, (4 μm, 3.9×300 mm, (Waters)) in a HPLC purifier system (PerkinElmer), equilibrated with 2% ACN, 0.1% TFA. […] Chromatographic runs were carried out at room temperature.

[6] = system: peptide YFLMNENRYTSWNSE (SEQ ID NO: 2); experiment: Time necessary to hydrolyse 50% of a 15 amino acid peptide at different temperatures; type: biochemical
Procedure: In order to evaluate the effect of the temperature on the activity of MjTET, the inventors evaluated the relative amount of intact peptides further to an incubation with the TET protein at different temperatures.
The inventors have measured the relative amount of intact peptide further to an incubation with MjTET.
MjTET activity was measured on the following peptide: YFLMNENRYTSWNSE (SEQ ID NO: 2). The inventors evaluated the time necessary to hydrolyse 50% of the peptide at different tempertaures

| Molecule | hydrolysis of the original peptide substrate [1] | temperature of maximal LAP activity ([2]; pH 8.5, 0.1 mM CoCl2, 20 to 90° C. tested) | LAP activity in mesophilic conditions ([2]; under 50° C.) | percentage of LAP activity maintained [3] | half-life [4] | cleavage of tryptophan from substrate Nt end [5] | amidolytic activity ([5]; against Leu-pNA, 75° C., pH 8.2) | amidolytic activity ([5]; against hydrophobic residues such as phenylalanine, methionine and tyrosine) | amidolytic activity ([5]; aspartate, glutamate, cysteine and proline monoacyl substrates) | amidolytic activity ([5]; blocked residues and D-stereo configuration: Ac-Leu-pNA and D-Leu-pNA) | amidolytic activity against aromatic amino acids [5] | amidolytic activity ([5]; polar and positively charged residues) | Time necessary to hydrolyse 50% of the peptide ([6]; 20 ° C.) | Time necessary to hydrolyse 50% of the peptide ([6]; 30 ° C.) | Time necessary to hydrolyse 50% of the peptide ([6]; 40 ° C.) | Time necessary to hydrolyse 50% of the peptide ([6]; 50 ° C.) | Time necessary to hydrolyse 50% of the peptide ([6]; 60 ° C.) | Time necessary to hydrolyse 50% of the peptide ([6]; 70 ° C.) | Time necessary to hydrolyse 50% of the peptide ([6]; 80 ° C.) | hydrolytic activity toward N-terminal phenylalanine residues [5] |
| --- | --- | --- | --- | --- | --- | --- | --- | --- | --- | --- | --- | --- | --- | --- | --- | --- | --- | --- | --- | --- |
| MjTET: TET aminopeptidase (M42 family, dodecameric) from Methanocaldococcus jannaschii comprising SEQ ID NO: 1 (protein, listed as Methanococcus jannaschii) MSVVEYLKKLSKLHGISGREDSVREFMKKELEKYCDSVEIDNFGNLIAKRGNKGKKIMIAAHMDEIGLMVKYIDDNGFLKFTKIGGIYDPTILNQKVVVHGSKGDLIGVLGSKPPHRMKEEEKTKIIKYEDMFIDIGAESREEAIEMGVNIGTWVSFLSEVYDLGKNRLTGKAFDDRVGCAVLLEVMKRLSEEDIDCQVYAVGTVQEEVGLKGARVSAFKINPDVAIALDVTIAGDHPGIKKEDAPVDLGKGPVVGIVDASGRGLIAHPKVLDMIKAVSEKYKIDVQWEVGEGGTTDATAIHLTREGIPTGVISVPARYIHTPVEVIDKRDLEKTVELVYNCIKEVNNFF | almost hydrolyzed | 85 °C | No activity was detected | more than 50% | eight | unable to cleave | optimal amidolytic activity | significant amidolytic activities | no activity was detected | no activity was detected | more efficient | Reduced activities | 75 h | 55 h | 3,9 h | 1.3 h | 1 h | 0.6 h | 0.25 h | – |
| PhTET2: leucyl aminopeptidase TET complex of Pyrococcus horikoshii with broad activity against neutral amino acids (protein) MEVRNMVDYELLKKVVEAPGVSGYEFLGIRDVVIEEIKDYVDEVKVDKLGNVIAHKKGEGPKVMIAAHMDQIGLMVTHIEKNGFLRVAPIGGVDPKTLIAQRFKVWIDKGKFIYGVGASVPPHIQKPEDRKKAPDWDQIFIDIGAESKEEAEDMGVKIGTVITWDGRLERLGKHRFVSIAFDDRIAVYTILEVAKQLKDAKADVYFVATVQEEVGLRGARTSAFGIEPDYGFAIDVTIAADIPGTPEHKQVTHLGKGTAIKIMDRSVICHPTIVRWLEELAKKHEIPYQLEILLGGGTDAGAIHLTKAGVPTGALSVPARYIHSNTEVVDERDVDATVELMTKALENIHELKI | – | – | – | – | – | unable to cleave | – | – | – | – | weak activity | – | – | – | 0.5 h | – | – | – | – | devoid of hydrolytic activity |
